Reference: the DeepSol protein solubility set

Assay: soluble on expression in E. coli; label from the status in PepcDB or PDB records

Row | Sequence | soluble on expression in E. coli
1 | MGSDKIHHHHHHLDPFASPQNLDKELRSLLAQASSNLCDWFAESASQGPMPYSFELPEVYPAKEGVSNDVLLSELQLLMDGSYRPSHPGSLAHLDPPPLSASIAGELICAGLNNNLLADELSPSLSSLERNLCKWFCHKLGLGDLSGGVAASGGSLSNLMALVMARNNSGLETDPKAVFFASHDCHVSFSKAFRIMGLKQESLQKVSTDENGALNISSLRTSLNKIKSQGKKCFAVVATAGTTVRGAIDPLSEIAKFCKKENVWFHVDGSIGGIYGLSEMTSEIVQGLGFADSLTINPQKLLGIPKTSSLLLVANKNHLSSTFSTGLPYVEPISGNDFHGGELGIQGTRSAETLKLWIGLRQLGEEGIEKILLGSIKRRCYLESIIDRSKFKIISGPLHLLAFTPINYSSSQSSDWSLKTRNSLLANKFMLSRPMYGHRYYLKAVMGNPNTKFDDLKMLANLINHSIS | not soluble
2 | MLNSFKLSLQYILPKLWLTRLAGWGASKRAGWLTKLVIDLFVKYYKVDMKEAQKPDTASYRTFNEFFVRPLRDEVRPIDTDPNVLVMPADGVISQLGKIEEDKILQAKGHNYSLEALLAGNYLMADLFRNGTFVTTYLSPRDYHRVHMPCNGILREMIYVPGDLFSVNHLTAQNVPNLFARNERVICLFDTEFGPMAQILVGATIVGSIETVWAGTITPPREGIIKRWTWPAGENDGSVALLKGQEMGRFKLGSTVINLFAPGKVNLVEQLESLSVTKIGQPLAVSTETFVTPDAEPAPLPAEEIEAEHDASPLVDDKKDQVMGHHHHHHSH | not soluble
3 | MSLKILGIETSCDETGVAIYDEEKGLIANQLYTQIALHADYGGVVPELASRDHIRKTAPLIKAALEEANLTASDIDGIAYTSGPGLVGALLVGATIARSLAYAWNVPAIGVHHMEGHLLAPMLDDNSPHFPFVALLVSGGHTQLVRVDGVGKYEVIGESIDDAAGEAFDKTAKLLGLDYPGGAALSRLAEKGTPNRFTFPRPMTDRAGLDFSFSGLKTFAANTVNQAIKNEGELIEQTKADIAYAFQDAVVDTLAIKCKRALKETGYKRLVIAGGVSANKKLRETLAHLMQNLGGEVFYPQPQFCTDNGAMIAYTGFLRLKQGQHSDLAIDVKPRWAMAELPAIEGHHHHHH | soluble
4 | MIDVIEAGLFTTVQDGGRFGYRHAGVPAGGAMDAWAYRLANALVGNNGDEAVLEATIAGPTLRFRVEAVVAVCGGDFPCTLNGRTFALWKPMAVEPGDVLEVGVCRTGFRAYIAVSGGIDVPPVMGSRSTYVPAQLGGLSGRPLQRGDALPVGVTHGRRVIGRMRWGLASAARRYIGGKTKTVRAVPGPEYDEFTPASRRQFFAARYEVTTQSDRIGYRLSGPTLALVREREMVSEAVVFGTVQVPASGQPIVLMADSQTTGGYPRIAQVAAVDLPILAQARPGDFIQFQPIGPEEAMWLYKEQQQRLARWITAIRRQWEGER | not soluble
5 | MRVGIKVLGCPKNEADCEVLAGVLREGGHEIVFDVKDADVVVLDTCAFIEDAKRESIDEIFSFVDAKDQYGYKLVVKGCLVQRYYEELKKEIPEVDQWIGVADPEEIANAIENGTDLVPDQPETVYRYRKRIDLEERPYAYVKISDGCDRGCTFCSIPSFKGSLRSRSIEDITREVEDLLKEGKKEIILVAQDTTSYGIDLYRKQALPDLLRRLNSLNGEFWIRVMYLHPDHLTEEIISAMLELDKVVKYFDVPVQHGSDKILKLMGRTKSSEELKKMLSSIRERFPDAVLRTSIIVGFPGETEEDFEELKQFVEEIQFDKLGAFVYSDEEGTVAFNLKEKVDPEMAKRRQEELLLLQAEISNSRLDRFVGKKLKFLVEGKEGKFLVGRTWTEAPEVDGVVFVRGKGKIGDFLEVVIKEHDEYDMWGSVILEHHHHHH | soluble
6 | MHMKLDDITYMNPWWEGKEDYHVKQWEKQKVHWEPKWIREISLKPFSLNFVLGPRQVGKTTGIKLLIQKILEENPPESVLYLNLEILPTYRELLDIIREFQELKKEEGIKTGYIFLDEASSLEGWWRGVKPLIDSGLLENDVITVTGSSSLRVRRDIELFPGRRGGGKTLEVMPLSFPEYARVMGLKKHKLEGSKVIKLFEKYIQTGGFPGSINGFPMEDLLGAYIGEFVRFGKSLEIAKEIFSALIRSAPSATSFRALAEMTSGYSYKVVQDYIEFFRDLYILGMAYLKQGNQVMYRREKKFFFRDPLLAKLFSLWSGTEIGKDALYEWIVQEHVFRKFGEIHYFRNSYEIDIIASDMKIEVKAGKAHRKYPRGVKVLEKEDVPFFLIELYNEDC | soluble
7 | YPHHLGTSPRHPLNSGTEMAGGAWGRLACYLEFLKKEELKEFQLLLANKAHSRSSSGETPAQPEKTSGMEVASYLVAQYGEQRAWDLALHTWEQMGLRSLCAQAQEGAGHSPSFPYSPSEPHLGSPSQPTSTAVLMPWIHELPAGCTQGSERRVLRQLPDTSGRRWREISASLLYQALPSSPDHESPSQESPNAPTSTAVLGSWGSPPQPSLAPREQEAPGTQWPLDETSGIYYTEIREREREKSEKGRPPWAAVVGTPPQAHTSLQPHHHPWEPSVRESLCSTWPWKNEDFNQKFTQLLLLQRPHPRSQDPLVKRSWPDYVEENRGHLIEIRDLFGPGLDTQEPRIVILQGAAGIGKSTLARQVKEAWGRGQLYGDRFQHVFYFSCRELAQSKVVSLAELIGKDGTATPAPIRQILSRPERLLFILDGVDEPGWVLQEPSSELCLHWSQPQPADALLGSLLGKTILPEASFLITARTTALQNLIPSLEQARWVEVLGFSESSRKEYFYRYFTDERQAIRAFRLVKSNKELWALCLVPWVSWLACTCLMQQMKRKEKLTLTSKTTTTLCLHYLAQALQAQPLGPQLRDLCSLAAEGIWQKKTLFSPDDLRKHGLDGAIISTFLKMGILQEHPIPLSYSFIHLCFQEFFAAMSYVLEDEKGRGKHSNCIIDLEKTLEAYGIHGLFGASTTRFLLGLLSDEGEREMENIFHCRLSQGRNLMQWVPSLQLLLQPHSLESLHCLYETRNKTFLTQVMAHFEEMGMCVETDMELLVCTFCIKFSRHVKKLQLIEGRQHRSTWSPTMVVLFRWVPVTDAYWQILFSVLKVTRNLKELDLSGNSLSHSAVKSLCKTLRRPRCLLETLRLAGCGLTAEDCKDLAFGLRANQTLTELDLSFNVLTDAGAKHLCQRLRQPSCKLQRLQLVSCGLTSDCCQDLASVLSASPSLKELDLQQNNLDDVGVRLLCEGLRHPACKLIRLGLDQTTLSDEMRQELRALEQEKPQLLIFSRRKPSVMTPTEGLDTGEMSNSTSSLKRQRLGSERAASHVAQANLKLLDVSKIFPIAEIAEESSPEVVPVELLCVPSPASQGDLHTKPLGTDDDFWGPTGPVATEVVDKEKNLYRVHFPVAGSYRWPNTGLCFVMREAVTVEIEFCVWDQFLGEINPQHSWMVAGPLLDIKAEPGAVEAVHLPHFVALQGGHVDTSLFQMAHFKEEGMLLEKPARVELHHIVLENPSFSPLGVLLKMIHNALRFIPVTSVVLLYHRVHPEEVTFHLYLIPSDCSIRKELELCYRSPGEDQLFSEFYVGHLGSGIRLQVKDKKDETLVWEALVKPGDLMPATTLIPPARIAVPSPLDAPQLLHFVDQYREQLIARVTSVEVVLDKLHGQVLSQEQYERVLAENTRPSQMRKLFSLSQSWDRKCKDGLYQALKETHPHLIMELWEKGSKKGLLPLSS | soluble
8 | MAHHHHHHMSSTASPNAALLAEINDLKVKLAEKEALLQPEGVVSKKSKKKSQANMIEKEPVQGCRDFPPEDMRVRRHLFGVFHETARKFGFEEYDAPVLESEELYIRKAGEEITDQMFNFVTKGGHRVTLRPEMTPSLVRLQLAKGRSLLLPAKWYSIPQCWRYEAISRGRRREHYQWNMDIVGVKSVAAEVELVCAACAAMESLGLTAQDVGVKVNSRKLLQCALAGAGVPDSLFAPVCVIVDKMEKLPEEQIRAELEDLALDGQQADDIIRTLSLRSVDDFDKNLFDKNGALSELAEFFSQMQMYGYGDWIQFDASVVRGLAYYTGIVFEAFDRSGEFRAIYGGGRYDNLFTLYGSPQPISCVGFGFGDCVIIELLKKKKLINSLPHKVDDVVIPFNESQRGTALKVLKQLRDKGRSADIIMDSKKVAQTFSYADRIGADRAVLIAPDETEKGMARVKMLREGQRGEDDRGDLVPFEDL | soluble
9 | MSGETTRLTEPQLRELAARGAAELDGATATDMLRWTDETFGDIGGAGGGVSGHRGWTTCNYVVASNMADAVLVDLAAKVRPGVPVIFLDTGYHFVETIGTRDAIESVYDVRVLNVTPEHTVAEQDELLGKDLFARNPHECCRLRKVVPLGKTLRGYSAWVTGLRRVDAPTRANAPLVSFDETFKLVKVNPLAAWTDQDVQEYIADNDVLVNPLVREGYPSIGCAPCTAKPAEGADPRSGRWQGLAKTECGLHAS | soluble
10 | MRYFKRRVGSGRVYMVMDNYSPHKTKGTLEVCCRKGIHPVFTPPYSPELNMAEAVFKSLKNYMSNKIFYTIEDVKNCIKQFFEENKYRFNLNAITYLGLDKIEV | soluble
11 | MKKMHVESEFAPLRSVVLAQSQFCLPDKFDEADTTFLTEENARLTQNNEGRDLADFAPEQQVRWEKEKEVMQGVLESYGVEVFRPRLLTTYEKEHGKELGVGYSNFFSRDPFFTIGNLLIEGNLRFQHRRQEILPIRPIIQQWTQEAEGYYFAAPQPDISEGALSEAGPFIEGGDVLVLGKTIFVGYSGLASNLAGIQWLANMIGHFGYEVVPVRLHPHILHLDCALSLLREGLMIVCEEAFLDGLPAQLANWEKIHVTLQEAAYLVTNGLPLNEETYITDQSFTTLIPQIEAKGIKVEAIDYHVSRMLGGSFRCTTQALIRE | not soluble
12 | MRKIKIGLALGSGAARGWSHIGVINALKKVGIEIDIVAGCSIGSLVGAAYACDRLSALEDWVTSFSYWDVLRLMDLSWQRGGLLRGERVFNQYREIMPETEIENCSRRFAAVATNLSTGRELWFTEGDLHLAIRASCSIPGLMAPVAHNGYWLVDGAVVNPIPISLTRALGADIVIAVDLQHDAHLMQQDLLSFNVSEENSENGDSLPWHARLKERLGSITTRRAVTAPTATEIMTTSIQVLENRLKRNRMAGDPPDILIQPVCPQISTLDFHRAHAAIAAGQLAVERKMDELLPLVRTNI | not soluble
13 | MGSDKIHHHHHHMQSKIAEAIKLGNQPVAVMRSDAKPEGAMQFKEGRWGCAISLLNMAAKGQVAVFANSTTTCSGGKVGLGFRQFELGFIEHFLSVGGVGGREGEFYKKNPELAGKFALELPKVTAKEYIIFKPLSELKADETPEGIIFLANADQISALTVLANYDRPTQDNVKVNFGAGCHQTVLFTLDQVDKDEDHCFIGLTDPSARKFIDKDILSFSMTYKRFLELEEQVEESFLTKETWLKVAERI | not soluble
14 | GPGSMTEHICASLVLTRGPEGLQRRLPVRLPLSGKPITIGRAIDNDVVLEMDLIFSSQWHCQMFAQKCEPETSERVEEREAASDPSRCEGRHVDCEGQTEIPVKEQYSLWLVDVGSSNGTFVNGIRVASSAPTPLHHGDVIVLGGMRDVEVGKSLPMEDLPLEIVTWRVAMEGKSEEGFGFVATPPVFLSMEFVISQARQRALGALQDSPDPKVSTTSPLKLPLKRMRHEQETGSNKLYDDGDVTPKRRIREVSYPSGEDRSGGELARRSGTVAAYLDPNEANAWEVTTNSSSDVASTTGLPCPSSKATASRGYCNSDALAEPTKEDARETRVAPAVARETVQ | soluble
15 | MQDIHFRRHYVRHLPKEVSQNDIIKALASPLINDGMVVSDFADHVITREQNFPTGLPVEPVGVAIPHTDHKYVRQNAISVGILAEPVNFEDMGGEPDPVPVRVVFMLALGESNKQLNVLGWIMDVIQDEDFMQQLLVMNDDEIYQSIYTRISERGEV | soluble
